Results from article PMC2911289.

Assays:
[1] = target: VEGF-B(10–108) (fusion protein) with thioredoxin, His tag and S tag (human); assay: SDS-PAGE and Western blot
[2] = target: VEGF-B(10–108), minimal receptor-binding domain of vascular endothelial growth factor-B (untagged dimer) (human); assay: crystal structure

stoichiometry N [1] | stoichiometry N [2] | Substance
2 |  | VEGF-B(10–108) (fusion protein) with thioredoxin, His tag and S tag (domain or fragment)
 | 2 | VEGF-B(10–108), minimal receptor-binding domain of vascular endothelial growth factor-B (untagged dimer) (domain or fragment)
